The record followed here is article PMC6109925, “Structural and functional analysis of cystatin E reveals enzymologically relevant dimer and amyloid fibril states” (The Journal of Biological Chemistry, 2018).

The stoichiometry N is a count of units in the complex or per binding partner. For orientation: Ki means the equilibrium dissociation constant of an inhibitor or competing ligand from its target.

The target in data set [1] is human cystatin E, full-length wild type, monomeric (human) (UniProt Q15828). Kind of data set: thioflavin T fluorescence; fibril formation after 10 min at 80 °C, 10 mg/ml, 50 mM citric acid, 100 mM NaCl (pH 3–6) or 50 mM Tris, 100 mM NaCl (pH 7.0); ThT fluorescence at 482 nm.
For data set [2] the target is unchanged. In words: SEC; S75 10/300 GL; WT cystatin E incubated at 60 °C in citric acid buffer at pH 3.0 before injection; monomer to dimer. In general terms: SEC sorts molecules by how far they enter the pores of the column.
Data set [3] has as its target human legumain, wild type, activated (human) (UniProt Q99538). Kind of data set: enzyme inhibition kinetics (Morrison equation for tight binding inhibitors); 50 mM citric acid pH 5.5, 100 mM NaCl, 0.05% Tween 20; 100 μM Z-AAN-AMC, 0.01 to 5 nM hCE, 2 nM legumain, 37 °C; triplicates.
Data set [4] concerns the target human cystatin E, full-length wild type, monomeric (human) (UniProt Q15828). Kind of data set: SEC; S75 10/300 GL, 20 mM citric acid pH 5.5, 100 mM NaCl; sample incubated 10 min at ≥70 °C (70, 80 or 85 °C), pH 5.5, then chilled on ice; monomer to dimer.
Data set [5] concerns the target glycosylated human cystatin E (human) (UniProt Q15828). The description is as above.
For data set [6], the target named is human legumain, wild type, activated (human) (UniProt Q99538). In words: SEC; S200 10/300 GL; legumain (0.5 mg/ml) incubated with dimeric hCE 1:1 (1 AEP and 1 hCE dimer) or monomeric hCE 1:2 at pH 5.5 for 10 min on ice; fractions on SDS-PAGE. The note with it: scale: hCE chains per legumain.
Chain of human legumain, wild type, activated (human) (Q99538 18-323): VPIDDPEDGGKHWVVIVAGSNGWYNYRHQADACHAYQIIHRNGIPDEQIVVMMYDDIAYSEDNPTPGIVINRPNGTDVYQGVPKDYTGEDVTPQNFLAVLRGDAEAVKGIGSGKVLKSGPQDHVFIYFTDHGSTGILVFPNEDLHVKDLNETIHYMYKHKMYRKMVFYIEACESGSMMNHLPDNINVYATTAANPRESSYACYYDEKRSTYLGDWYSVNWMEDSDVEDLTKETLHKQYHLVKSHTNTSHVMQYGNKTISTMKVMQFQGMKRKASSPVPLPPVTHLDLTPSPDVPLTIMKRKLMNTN
Data set [7] concerns the molecule itself. Kind of data set: SEC; S75 10/300 GL, 20 mM citric acid pH 5.5, 100 mM NaCl, 250 μl sample; no destabilising heat (ΔhCE kept at 4 °C and 37 °C before injection); oligomerisation state.
Data set [8] deals with the molecule itself. Kind of data set: SEC; S75 10/300 GL, 20 mM citric acid pH 5.5, 100 mM NaCl; sample incubated 10 min at ≥70 °C (70, 80 or 85 °C), pH 5.5, then chilled on ice; monomer to dimer.

For the molecule “human cystatin E, full-length wild type, monomeric (from UniProt Q15828 29-149) (natural protein)”, the fold increase in ThT signal after incubation at pH 3.0 in data set [1] is 4 fold. Also, the stoichiometry N in data set [2] and in data set [4] was 2 throughout. The same molecule showed an inhibitory constant (Ki) in data set [3] of 0.0107 nM. This molecule had a percent converted to the dimer at 70 °C in data set [4] of over 90%.
In data set [5], “glycosylated human cystatin E (from UniProt Q15828 29-149) (natural protein)” came in with a stoichiometry N of 2.
Take “dimeric human cystatin E (domain-swapped dimer) (from UniProt Q15828 29-149) (complex)”: the stoichiometry N in data set [6] was 2. For the same molecule, the inhibition constant Ki in data set [3] is 0.0135 nM.

B1: N-terminally truncated human cystatin E, Δ(Arg4–Leu13)hCE (domain or fragment)
chain: MELSPDDPQVQKAAQAAVASYNMGSNSIYYFRDTHIIKAQSQLVAGIKYFLTMEMGSTDCRKTRVTGDHVDLTTCPLAAGAQQEKLRCDFEVLVVPWQNSSQLLKHNCVQM
Consider B1, for which the “stoichiometry N” value in data set [7] came out at 2.

B2: human cystatin C, wild type (natural protein, UniProt P01034 27-146, looked up)
chain: SSPGKPPRLVGGPMDASVEEEGVRRALDFAVGEYNKASNDMYHSRALQVVRARKQIVAGVNYFLDVELGRTTCTKTQPNLDNCPFHDQPHLKRKAFCSFQIYAVPWQGTMTLSKSTCQDA
notes: N terminus Ser1 after removal of the pelB leader. numbers count on: the mature protein; Called 'untagged hCC' in the pull-down (it has no Strep-tag), while the methods give a C-terminal His6 tag for the expression constructs; also called hCC; WT cystatin C; source: E. coli Bl21(DE3), periplasm (pelB leader), purified (nickel-nitrilotriacetic acid resin, SEC)
As to B2, in data set [8], the “stoichiometry N” value stood at 2.
